{"source": "paper PMC11535393", "about": "“Combining systems and synthetic biology for in vivo enzymology” (The EMBO Journal, 2024)", "molecules": {"B1": {"name": "XdCrtI (Phaffia rhodozyma) (protein)", "chain": "MGKEKDQDKPTAIIVGCGIGGIATAARLAKEGFQVTVFEKNDYSGGRCSLIERDGYRFDQGPSLLLLPDLFKQTFEDLGEKMEDWVDLIKCEPNYVCHFHDEETFTLSTDMALLKREVERFEGKDGFDRFLSFIQEAHRHYELAVVHVLQKNFPGFAAFLRLQFIGQILALHPFESIWTRVCRYFKTDRLRRVFSFAVMYMGQSPYSAPGTYSLLQYTELTEGIWYPRGGFWQVPNTLLQIVKRNNPSAKFNFNAPVSQVLLSPAKDRATGVRLESGEEHHADVVIVNADLVYASEHLIPDDARNKIGQLGEVKRSWWADLVGGKKLKGSCSSLSFYWSMDRIVDGLGGHNIFLAEDFKGSFDTIFEELGLPADPSFYVNVPSRIDPSAAPEGKDAIVILVPCGHIDASNPQDYNKLVARARKFVIQTLSAKLGLPDFEKMIVAEKVHDAPSWEKEFNLKDGSILGLAHNFMQVLGFRPSTRHPKYDKLFFVGASTHPGTGVPIVLAGAKLTANQVLESFDRSPAPDPNMSLSVPYGKPLKSNGTGIDSQVQLKFMDLERWVYLLVLLIGAVIARSVGVLAF", "notes": "full-length, gene amplified from a plasmid, expressed in Saccharomyces cerevisiae under PGK1p; V5 tag (CrtI-V5 in western blot)"}, "B2": {"name": "BtCrtI (Blakeslea trispora) (protein)", "chain": "MSDQKKHIVVIGAGIGGTATAARLAREGFRVTVVEKNDFSGGRCSFIHHDGHRFDQGPSLYLMPKLFEDAFADLDERIGDHLDLLRCDNNYKVHFDDGDAVQLSSDLTKMKGELDRIEGPLGFGRFLDFMKETHVHYEQGTFIAIKRNFETIWDLIRLQYVPEIFRLHLFGKIYDRASKYFQTKKMRMAFTFQTMYMGMSPYDAPAVYSLLQYTEFAEGIWYPRGGFNMVVQKLESIASKKYGAEFRYQSPVAKINTVDKDKRVTGVTLESGEVIEADAVVCNADLVYAYHHLLPPCNWTKKTLASKKLTSSSISFYWSMSTKVPQLDVHNIFLAEAYKESFDEIFNDFGLPSEASFYVNVPSRIDESAAPPNKDSIIVLVPIGHMKSKTGNSAEENYPELVNRARKMVLEVIERRLGVNNFANLIEHEEVNDPSVWQSKFNLWRGSILGLSHDVFQVLWFRPSTKDSTNRYDNLFFVGASTHPGTGVPIVLAGSKLTSDQVCKSFGQNPLPRKLQDSQKKYAPEQTSKTESHWIYYCLACYFVTFLFFYFFPRDDTTTPASFINQLLPNVFQVQNSNDIRI", "notes": "full-length, yeast codon-optimized synthetic gene, expressed in Saccharomyces cerevisiae under PGI1p; V5 tag (CrtI-V5 in western blot)"}}, "key": {"PaCrtI": {"molecular_target": "T1, PaCrtI (Pantoea ananatis, UniProt P21685)", "T1 construct": "gene crtI; full-length, yeast codon-optimized synthetic gene, expressed in Saccharomyces cerevisiae under TDH3p; V5 tag (CrtI-V5 in western blot)", "T1 sequence (P21685 whole entry)": "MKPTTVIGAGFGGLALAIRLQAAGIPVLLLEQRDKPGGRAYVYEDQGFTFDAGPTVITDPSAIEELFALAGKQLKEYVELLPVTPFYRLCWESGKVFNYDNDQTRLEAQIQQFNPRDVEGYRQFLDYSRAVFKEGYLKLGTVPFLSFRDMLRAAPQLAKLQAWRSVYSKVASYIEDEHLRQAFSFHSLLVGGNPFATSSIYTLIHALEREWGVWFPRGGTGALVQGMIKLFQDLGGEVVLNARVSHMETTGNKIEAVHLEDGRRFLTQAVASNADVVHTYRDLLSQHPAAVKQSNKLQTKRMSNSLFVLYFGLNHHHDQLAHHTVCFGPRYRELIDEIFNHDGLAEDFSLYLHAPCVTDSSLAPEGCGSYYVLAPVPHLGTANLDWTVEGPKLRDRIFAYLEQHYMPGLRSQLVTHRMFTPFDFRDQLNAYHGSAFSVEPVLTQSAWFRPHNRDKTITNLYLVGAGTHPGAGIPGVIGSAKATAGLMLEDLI", "test": "in vivo lycopene flux vs intracellular phytoene in yeast strains, Michaelis-Menten fit", "format": "cell-based", "conditions": "read-out: K1/2cell; in living S. cerevisiae, exponential growth, 28 °C, medium pH 5.0; TDH3p expression; total intracellular substrate concentration; lower limit only, no saturation"}, "[1]": {"test_system": "CC(C)=CCC/C(C)=C/CC/C(C)=C/CC/C(C)=C/COP(=O)(O)OP(=O)(O)O", "test": "cells, lysate or membranes", "conditions": "in living S. cerevisiae, exponential growth, 28 °C, medium pH 5.0, PGI1p expression, total intracellular substrate concentration, partial saturation"}, "[2]": {"substrate": "CC(C)=CCC/C(C)=C/CC/C(C)=C/CC/C(C)=C/C=C\\C=C(/C)CC/C=C(\\C)CC/C=C(\\C)CCC=C(C)C", "test": "in vivo lycopene flux vs intracellular phytoene in yeast strains, Michaelis-Menten fit", "format": "cell-based, Phaffia rhodozyma", "conditions": "in living S. cerevisiae, exponential growth, 28 °C, medium pH 5.0, PGK1p expression, total intracellular substrate concentration"}, "[3]": {"substrate": "CC(C)=CCC/C(C)=C/CC/C(C)=C/CC/C(C)=C/C=C\\C=C(/C)CC/C=C(\\C)CC/C=C(\\C)CCC=C(C)C", "test": "in vivo lycopene flux vs intracellular phytoene in yeast strains, Michaelis-Menten fit", "format": "cell-based, Blakeslea trispora", "conditions": "in living S. cerevisiae, exponential growth, 28 °C, medium pH 5.0, PGI1p expression, total intracellular substrate concentration, enzyme level slightly higher in low-phytoene strains"}}}
{"molecule": "CC(C)=CCC/C(C)=C/CC/C(C)=C/CC/C(C)=C/C=C\\C=C(/C)CC/C=C(\\C)CC/C=C(\\C)CCC=C(C)C", "note": "[phytoene]", "values": [{"measurement": "Km", "setting": "PaCrtI", "value": "> 560", "unit": "µM"}]}
{"molecule": "PaCrtB (Pantoea ananatis)", "values": [{"measurement": "K0.5", "setting": "[1]", "value": "19 ± 3", "unit": "µM"}, {"measurement": "kcat", "setting": "[1]", "value": "6 ± 1", "unit": "s⁻¹"}]}
{"molecule": "B1", "values": [{"measurement": "K0.5", "setting": "[2]", "value": "380 ± 49", "unit": "µM"}, {"measurement": "kcat", "setting": "[2]", "value": "0.030 ± 0.006", "unit": "s⁻¹"}]}
{"molecule": "B2", "values": [{"measurement": "K0.5", "setting": "[3]", "value": "41 ± 12", "unit": "µM"}]}
